Data: patent US20170334973A1 (INTEGRATED BIOTHERAPEUTICS, published 2017)

T1: EBOV VLP (Ebola virus (EBOV), UniProt Q05320 33-676)
T1 sequence: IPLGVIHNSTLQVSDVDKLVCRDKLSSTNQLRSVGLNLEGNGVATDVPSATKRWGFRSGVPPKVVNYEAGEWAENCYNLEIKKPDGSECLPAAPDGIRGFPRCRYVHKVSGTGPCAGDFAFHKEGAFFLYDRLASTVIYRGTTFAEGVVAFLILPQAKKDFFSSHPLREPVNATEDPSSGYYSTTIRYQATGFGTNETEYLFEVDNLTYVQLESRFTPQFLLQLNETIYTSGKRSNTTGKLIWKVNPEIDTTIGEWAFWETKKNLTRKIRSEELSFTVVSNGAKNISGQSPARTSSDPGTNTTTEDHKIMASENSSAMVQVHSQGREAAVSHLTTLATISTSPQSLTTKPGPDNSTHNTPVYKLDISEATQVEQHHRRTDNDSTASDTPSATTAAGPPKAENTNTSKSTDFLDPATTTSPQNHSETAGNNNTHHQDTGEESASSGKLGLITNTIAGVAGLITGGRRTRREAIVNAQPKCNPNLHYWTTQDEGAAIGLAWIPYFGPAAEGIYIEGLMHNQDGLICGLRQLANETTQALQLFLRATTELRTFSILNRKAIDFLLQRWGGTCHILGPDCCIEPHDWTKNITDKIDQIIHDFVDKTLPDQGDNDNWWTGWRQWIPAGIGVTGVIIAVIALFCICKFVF

T2: SUDV VLP (Sudan virus (SUDV), UniProt Q66814 33-676)
T2 sequence: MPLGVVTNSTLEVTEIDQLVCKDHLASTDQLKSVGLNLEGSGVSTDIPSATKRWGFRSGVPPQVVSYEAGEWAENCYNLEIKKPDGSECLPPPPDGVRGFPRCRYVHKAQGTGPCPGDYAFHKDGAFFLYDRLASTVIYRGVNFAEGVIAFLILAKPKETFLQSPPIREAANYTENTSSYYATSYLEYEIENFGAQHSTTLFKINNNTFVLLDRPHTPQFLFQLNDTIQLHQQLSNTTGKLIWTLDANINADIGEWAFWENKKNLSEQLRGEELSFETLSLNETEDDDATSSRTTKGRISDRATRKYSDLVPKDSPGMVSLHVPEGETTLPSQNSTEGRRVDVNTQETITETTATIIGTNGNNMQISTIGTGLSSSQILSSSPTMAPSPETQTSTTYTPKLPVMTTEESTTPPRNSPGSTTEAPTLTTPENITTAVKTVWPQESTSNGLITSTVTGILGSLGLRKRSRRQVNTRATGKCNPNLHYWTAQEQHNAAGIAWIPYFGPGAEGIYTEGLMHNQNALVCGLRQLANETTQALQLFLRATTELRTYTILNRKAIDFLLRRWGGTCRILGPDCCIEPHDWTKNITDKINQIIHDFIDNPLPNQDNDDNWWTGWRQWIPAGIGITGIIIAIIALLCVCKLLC


Assays:
EBOV VLP = target: T1, EBOV VLP; assay: ELISA
SUDV VLP = target: T2, SUDV VLP; assay: ELISA

Binder	EC50 (EBOV VLP) [nM]	EC50 (SUDV VLP) [nM]
FVM35 (antibody, V domains shown) VH: EVQLVQSGAEVKRPGESLTISCKTSGYSFTSYWITWVRQMPGKGLEWLGSIYPGDSETKYNPSFQGHVTISADKSVTTTYLKWSSLKASDTATYYCVKGSETWGQGVLVTVSS VL: QPVLTQPASLSASPGASASLTCTFSGGINVAGYNILWYQQKAGSPPRYLLRYKSDSTKDQGSGVPSRFSGSKDASANTGILRISGLQSEDEADYYCAIGHSSGWIFGGGTRLTVL	0.233	0.14
FVM18 (antibody, V domains shown) VH: QVQLVQSGAEVKRPGESLKISCKTSGYSFTNIWISWVRQMPGKGLEWLGSIYPGDSETKYNPSFQGHVTISADKSVTTTYLKWSSLKASDTATYYCVKGSETWGQGVLVTVSS VL: NFMLTQPASLSASPGASASLTCTFSGGINVAGYHILWYQQKPGSPPRYLLRYKSDSEKDQGSGVPSRFSGSKDASANRGILRISGLQSEDEADYYCAIGHSSSGWVFGGGTRLTVL	1.03	1.08
FVM10 (antibody, V domains shown) VH: QVQLVQSGAEVKRPGESLKISCQTSGYSFTDSWVAWVRQMPGKGLEWLGSIYPGDSETKYNPSFQGHVTISADKSISTAYLQWSSLKASDTATYYCAKGSETWGQGLRVTVSS VL: QAGLTQPASLSASPGASASLTCTFSGGINVAGYNILWYQQKPGSPPRYLLRYKSDSDKDQGSGVPSRFSGSKDASANTGILRISGLQSEDEADYYCAIGHSSGWIFGGGTRLTVL	0.653	0.687
FVM19 (antibody, V domains shown) VH: QVQLVQSGAEVKRPGESLTISCKTSGYSFTDSWVAWVRQMPGKGLEWLGSIYPGDSDTKYNPSFQGHVTISADKSVTTTYLKWSSLKASDTATYYCVKGSETWGQGVLVTVSS VL: KPMLTQPASLSASPGASASLTCTFSGGINVAGYHIFWYQQKPGSPPRYLLRYKSDSDKGQGSGVPSRFSGSKDASANTGILRISGLQSEDEADYYCAIGHSSGLLFGGGTRLTVL	0.967	5.4
FVM21 (antibody, V domains shown) VH: EVQLVESGAEVKRPGESLTISCKTSGYSFTDSWVAWVRQMPGKGLEWLGSIYPGDSETKYNPSFQGHVTISADKSISTTYLQWSSLRASDTATYYCVKGADDWGPGLLVTVSS VL: SSELTQPASLSASPGASASLTCTFSGGINVAGYNILWYQQKAGSPPRYLLRYKSDSDKGQGSGVPSRFSGSKDASANTGILRISGLQSEDEADYYCAIGHSSGWIFGGGTRLTVL	0.32	0.373
FVM25 (antibody, V domains shown) VH: EVQLVHSGAEVKRPGESLTISCKTSGYTFTDYWIAWVRQMPGKGLEWMASIYPDDSDTRYNPSFQGHVTISADKSISTTYLQWSSLRASDTATYYCVKGSETWGQGVLVTVSS VL: QLVLTQPASLSASPGTSASLTCTFSGGINVAGYNILWYQQKPGSPPRFLLRYKSDSDNVQGSGVPSHFSGSKDASTNTGILRISGLQSEDEADYYCAIGHSSGWVFGGGTRLTVL	0.473	0.96
FVM23 (antibody, V domains shown) VH: QVQLVQSGAEVKRPGESLTISCKTSGYSFTGSWISWVRQMPGKGLEWMGSIYPGDSDTTYNPSFQGHVTISADKSISTAYLQWTSLKASDTATYYCVKGSETWGQGVLVTVSS VL: SYELTQPASLSASPGASASLTCTFSGGINVAGYNILWYQQKAGSPPRYLLRYKSDSTKDQGSGVPSRFSGSKDASANTGILRISGLQSEDEADYYCAIGHSSGLIFGAGTRLTVL	0.367	0.353
FVM17 (antibody, V domains shown) VH: EVQLVQSGAEVKRPGESLTISCKTSGYSFTDSWISWVRQMPGKGLEWMGSIYPGDSDARYNPSFQGHVTISADKSISTTYLKWSSLKASDTATYYCVKGSETWGQGVLVTVSS VL: QAVVTQPASLSASPGTSASLTCTFSGGINVAGYNILWYQQKPGSPPRFLLRYKSDSDNVQGSGVPSHFSGSKDASANTGILRISGLQSEDEADYYCAIGHSSGWIFGGGTRLTVL	0.767	1.43
FVM12 (antibody, V domains shown) VH: EVQLVQSGAEVKRPGESLTISCKTSEYSFTGSWISWVRQMPGKGLEWMGSIYPGDSDTRYSPSFQGQVTISADKSVTTTYLKWSSLKASDTATYYCVKGSETWGQGVLVTVSS VL: QPVLTQPASLSASLGASASLTCTFSGGINVAGYNILWYQQKPGSPPRFLLRYKSDSDNVQGSGVPSHFSGSKDASTNTGILRISGLQSEDEADYYCAIGHSSGWVFGGGTRLTVL	0.622	0.673
FVM24 (antibody, V domains shown) VH: EVQLVQSGAEVKRPGESLKISCKTSGYSFTDSWVAWVRQMPGKGLEWMGSIYPGDFQTRYNPSFQGHVTLSADKSISTTYLQWSSLKASDTATYYCVKGSETWGPGVLVTVSS VL: SSGLTQPASLSASPGASASLTCTFSGGINVAGYNILWYQQKAGSPPRYLLRYKSDSTKDQGSGVPSRFSGSKDVSANTGILRISGLQSDDEADYYCAIGHSSGWIFGGGTRLTVL	0.513	3.2
FVM40 (antibody, V domains shown) VH: EVQLVQSGAEVKRPGESLTISCKTSGYSFTDSWISWVRQMPGKGLEWMGSIYPGDSETKYNPSFQGHVTISADKSVTTTYLKWSSLKASDTATYYCVKGSETWGQGVLVTVSS VL: QPMLTQPASLSASPGASASLTCTFSGGINVAGYNILWYQQKAGSPPRYLLRYKSDSTKDQGSGVPSRFSGSKDASANTGILRISGLQSEDEADYYCAIGHSSGWIFGGGTRLTVL	0.173	0.113
FVM38 (antibody, V domains shown) VH: QVQLVQSGAEVKRPGESLTISCKTSGYSFTDSWIGWVRQMPGKGLEWMASIYPDDSETKYNPSFQGHVTISADKSVTTTYLKWSSLKASDTATYYCVKGSETWGQGVLVTVSS VL: QPVLTQPASLSASPGASASLTCTFSGGINVAGYNILWYQQKAGSPPRYLLRYKSDSTKDQGSGVPSRFSGSKDASANTGILRISGLQSEDEADYYCAIGHSSGWIFGGGTRLTVL	0.253	0.147
FVM41 (antibody, V domains shown) VH: EVQLVQSGAEVKRPGESLKISCKTSGYSFTDTWISWVRQMPGKGLEWMGSIYPGDSETKYNPSFQGHVTISADKSVTTTYLKWSSLKASDTATYYCVKGSETWGQGVLVTVSS VL: ETVVTQPASLSASPGASASLTCTFSGGINVAGYNILWYQQKAGSPPRYLLRYKSDSTKDQGSGVPSRFSGSKDASANTGILRISGLQSEDEADYYCAIGHSSGVLFGGGTRLTVL	0.36	0.32
FVM37 (antibody, V domains shown) VH: QVQLVQSGAEVKRPGESLKISCKTSGYRFTSSWISWVRQMPGKGLEWLGSIYPGDSETKYNPSFQGHVTISADKSVTTTYLKWSSLKASDTATYYCVKGSETWGQGVLVTVSS VL: SSELTQPASLSASPGASASLTCTFSGGINVAGYNILWYQQKAGSPPRYLLRYKSDSTKDQGSGVPSRFSGSKDASANTGILRISGLQSEDEADYYCAIGHSSGWIFGGGTRLTVL	0.227	0.127
FVM28 (antibody, V domains shown) VH: EVQLVQSGAEVKRPGESLKISCQTSGYRFTSSWISWVRQMPGKGLEWMGAIDPSDSETRYSPSFQGQVTISADKSISTAYLKWSSLKASDTATYYCVKGSETWGQGVLVTVSS VL: QAALTQPASLSASPGASASLTCTFSGGINVAGYHILWYQQKPGSPPRYLLRYKSDSEKDQGSGVPSRFSGSKDASANRGILRISGLQSEDEADYYCAIGHSSSGWVFGGGTRLTVL	0.593	0.58
